Source: US20240294613A1 (BROAD INSTITUTE, published 2024)

B1: BG1-15 dimeric IgA (antibody, V domains shown)
VH: DVQLVESGGVVVQPGGSLRLACAASGFTFDDYAMHWVRQAPGKGLEWVSLITRDGGSTHYADSVKGRFTISRDNSKNSLYLQMNSLRLEDTAFYYCAKDGRRDGYNHALDNWGQGTLVTVSS
VL: DIQMTQSPSTLSASVGDRVTITCRASQSISSWLAWYQQKPGKAPKLLINRASSLESGVPSRFSGSGSGTEFTLTISSLQPDDFATYYCQQYSSYPTFGQGTKVEIKR
B2: BG7-18 (antibody, V domains shown)
VH: EVQLMESGGGLIQPGGSLRLSCAASGFIVSSNYMSWVRQAPGKGLEWVSVIYSGGGTDYADSVKGRFTISRDNSKNTLFLQMNSLRAEDTAVYYCARGAAMVKELFDYWGQGTQVTVSS
VL: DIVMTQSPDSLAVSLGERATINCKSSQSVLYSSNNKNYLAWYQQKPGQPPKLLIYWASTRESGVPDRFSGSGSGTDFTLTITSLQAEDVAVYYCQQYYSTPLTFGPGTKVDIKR
B3: BG7-15 (antibody, V domains shown)
VH: QVQLVQSGAEVKKPGASVKVSCKASGYTFTSYAISWVRQAPGQGLEWMGWVSAYNGNTNYAQKLQGRVTMTTDTSTNTAYMELRSLRSDDTAIYYCAIPYSSVTFDCWGQGTLVTVSS
VL: EIVLTQSPGTLSLSPGERATLSCRASQSVSGTFLAWYQQKPGQAPRLLISGASSRATGIPDRFSGSGSGTDFTLTISRLEPEDFAVYYCQQYGSSRPTFGQGTKLEIKR
B4: BG10-8 dimeric IgA (antibody, V domains shown)
VH: QMELVESGGGLVKPGGSLRLSCASSGFSLGDYYMTWIRQAPGKGLEWVSYISRSDGKTFYADSVKGRFTLSTDDGKKSLYLQMNSLRAEDTAVYYCVRGEGGPHDAFDIWGQGTMVTVSS
VL: TSYVLTQPPSVSVAPGQTARISCGGNNIESKTVHWYQQKPGQAPILVVYDDNDRPSGIPERFSGSNSGNTATLSISRAEAGDEADYYCQVWDSSRDLRVFGGGTKLSVLG

Legend:
[1] = molecular target: SARS-COV-2 full-length S (containing G at position 614) (SARS-COV-2, UniProt P0DTC2 14-1273); experiment: cell-based or functional assay
[2] = molecular target: SARS-COV-2 full-length S (containing G at position 614) (SARS-COV-2, UniProt P0DTC2 14-1273); experiment: cell-based or functional assay; remark: listed apart in the source

Binder | IC50, SARS-COV-2 pseudovirus neutralization [1] | PV IC50 [2] | molar neutralization ratio (MNR) [1]
B1 | 6.5 µg/mL | – | –
B2 | – | 0.083 µg/mL | –
B3 | – | 0.016 µg/mL | –
B4 | 0.026 µg/mL | – | 10.9
